This test deals with regulatory domain of OxyR (NMB0173) from Neisseria meningitidis, reduced form (N. meningitidis). Description: crystal structure; selenomethionine protein, His tag removed, 9 mg/ml in 20 mM Tris pH 7.5, 200 mM NaCl, 2 mM TCEP; reservoir 20% w/v PEG 3350, 0.2 M calcium acetate; 2.4 Å; dimer in the asymmetric unit.

Broadly, the stoichiometry N is a count of units in the complex or per binding partner.

In the case of “regulatory domain of OxyR (NMB0173) from Neisseria meningitidis, reduced form (domain or fragment)”, the stoichiometry N turned out to be 2.

The values are drawn from article PMC2881104.
